From article PMC7612645 come the findings set out here.

Series [1] addresses HBV core protein (Cp) dimer (Hepatitis B virus) (UniProt P03146). The series is described as follows: NCP reassembly, SEC-MALLS with RNase A challenge. As to conditions: 20 mM HEPES pH 7.5, 250 mM NaCl, 5 mM DTT, DMSO +/- compound, <0.15 M GuHCl, room temperature; Cp titrated in 10 steps to 1.2 uM.
Series [2] has the same target. Description: fluorescence anisotropy. As to conditions: 20 mM HEPES pH 7.5, 250 mM NaCl, 5 mM DTT, DMSO +/- compound, <0.15 M GuHCl, room temperature; Cp titrated in 10 steps to 1.2 uM; scale: normalized anisotropy change vs no compound.

Chain of HBV core protein (Cp) dimer (Hepatitis B virus) (P03146 whole entry): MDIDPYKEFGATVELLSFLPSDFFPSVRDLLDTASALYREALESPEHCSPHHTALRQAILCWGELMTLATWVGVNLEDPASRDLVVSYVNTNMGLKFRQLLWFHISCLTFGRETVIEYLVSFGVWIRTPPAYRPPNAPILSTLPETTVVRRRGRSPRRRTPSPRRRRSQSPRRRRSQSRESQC

Turning to HBV gRNA transcript, in series [1], the binding signal (% NCP yield vs control) is 90.
Turning to HBV gRNA transcript, dye-labelled, the binding signal in series [2] turned out to be 0.477.
